The values below are quoted from earlier work in patent publication US20230173142A1, “BALLISTIC DELIVERY TO MULTILAYERED TISSUES AND RELATED PARTICLES, COMPOSITIONS, METHODS AND SYSTEMS” (CALIFORNIA INSTITUTE OF TECHNOLOGY, priority 2021, published 2023).

For this series, the system named is wound healing. Particulars: Material: Nanofiber.

B1: G-CSF: granulocyte colony-stimulating factor (protein, UniProt P09919 31-207, looked up)
Granulocyte …: TPLGPASSLPQSFLLKCLEQVRKIQGDGAALQEKLVSECATYKLCHPEELVLLGHSLGIPWAPLSSCPSQALQLAGCLSQLHSGLFLYQGLLQALEGISPELGPTLDTLQLDVADFATTIWQQMEELGMAPALQPTQGAMPAFASAFQRRAGGVLVASHLQSFLEVSYRVLRHLAQP
As to B1, the Effect result is “Improved wound closure, scar reduction, fibroblast maturation, as well”.
